Laboratory results taken from publication doi:10.1101/2025.01.05.631328 (bioRxiv, 2025).
“And” between values parts separate entries of the source, which are not always exact repeats. Equal entries are not always repeated.

Target: the molecule itself
Assay: cross-linking

B1: MISO-Flag (human C3orf33, long isoform), in U2OS cells (natural protein, UniProt Q6P1S2 1-294, looked up)
chain: MAGQPAATGSPSADKDGMEPNVVARISQWADDHLRLVRNISTGMAIAGIMLLLRSIRLTSKFTSSSDIPVEFIRRNVKLRGRLRRITENGLEIEHIPITLPIIASLRKEPRGALLVKLAGVELAETGKAWLQKELKPSQLLWFQLLGKENSALFCYLLVSKGGYFSVNLNEEILRRGLGKTVLVKGLKYDSKIYWTVHRNLLKAELTALKKGEGIWKEDSEKESYLEKFKDSWREIWKKDSFLKTTGSDFSLKKESYYEKLKRTYEIWKDNMNNCSLILKFRELISRINFRRKG
stoichiometry N: 2 and 3
